Test results from patent US20230383007A1 (BIOSION, published 2023).

Legend:
human TROP2-his protein [1] = molecular target: T1, human TROP2-his protein (human, UniProt P09758 27-274); assay: SPR Biacore T200; antibody captured on anti-human IgG CM5 chip, TROP2-his as analyte in 2-fold dilutions from 160 nM; 1:1 Langmuir fit
T1 construct: also called biotin labeled human TROP2-his protein
T1 sequence: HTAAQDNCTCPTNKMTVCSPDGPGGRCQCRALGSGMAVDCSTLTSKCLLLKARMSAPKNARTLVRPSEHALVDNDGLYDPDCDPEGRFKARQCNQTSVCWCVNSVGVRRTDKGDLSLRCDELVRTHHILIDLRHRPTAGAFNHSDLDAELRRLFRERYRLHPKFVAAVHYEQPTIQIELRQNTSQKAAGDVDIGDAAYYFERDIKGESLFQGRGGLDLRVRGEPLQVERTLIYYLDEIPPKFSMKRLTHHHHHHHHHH
Description: (§1) The purified anti-TROP2 mouse monoclonal antibodies (mAbs) were characterized for binding affinity and binding kinetics by Biacore T200 system (GE healthcare, Pittsburgh, PA, USA). Briefly, goat anti-human IgG (GE healthcare, Cat #BR100839, Human Antibody Capture Kit) was covalently linked to a CM5 chip (carboxy methyl dextran coated chip from GE healthcare #BR100530) via primary amines, using a standard amine coupling kit (GE healthcare, Pittsburgh, PA, USA) provided by Biacore. Un-reacted moieties on the chip (biosensor) surface were blocked with ethanolamine. The anti-TROP2 antibodies of the disclosure and the benchmark at the concentration of 2 μg/ml were respectively flowed onto the chip at a flow rate of 10 μL/min. Then, serially diluted human TROP2-his protein (prepared in-house with SEQ ID NO: 16), or cynomolgus TROP2-his protein (prepared in-house with SEQ ID NO: 19), 2-fold dilution in HBS-EP⁺ buffer (provided by Biacore) starting at 160 nM, were flowed onto the chip at a flow rate of 30 μL/min. The antigen-antibody association kinetics was followed for 2 minutes and the dissociation kinetics was followed for 10 minutes. The association and dissociation curves were fit to a 1:1 Langmuir binding model using BIAcore evaluation software.

[2] = molecular target: T2, cynomolgus TROP2-his protein (cynomolgus, UniProt P09758 27-272 (human entry), limits assumed); assay: as above
T2 construct: also called Cyno TROP2-his; Cynomolgus monkey TROP2-his protein
T2 chain: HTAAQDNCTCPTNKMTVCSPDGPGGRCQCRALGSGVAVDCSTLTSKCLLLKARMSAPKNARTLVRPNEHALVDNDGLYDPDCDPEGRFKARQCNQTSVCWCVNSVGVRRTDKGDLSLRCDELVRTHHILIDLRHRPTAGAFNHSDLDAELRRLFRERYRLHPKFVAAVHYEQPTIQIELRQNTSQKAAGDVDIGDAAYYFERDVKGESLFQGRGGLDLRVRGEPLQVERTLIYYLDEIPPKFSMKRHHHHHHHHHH
Description: as §1

human TROP2-his protein [3] = molecular target: T1, human TROP2-his protein; assay: competitive ELISA: antibody pre-mixed with biotin labeled human TROP2-his, added to plate coated with the benchmark (sacituzumab analog); unit taken from the x axis (ng/mL)
Method: The anti-TROP2 antibodies were tested for their epitope binding in a competitive ELISA assay. Briefly, 100 μl of the benchmark at 1 μg/mL in PBS was coated on 96-well micro plates for 2 hours at 37° C. ELISA plates were washed once with wash buffer (PBS+0.05% v/v Tween-20, PBST) and then blocked with 200 μl blocking buffer (5% w/v non-fatty milk in PBST) for 2 hours at 37° C. While blocking, the anti-TROP2 antibodies of the disclosure or controls were diluted with biotin labeled human TROP2-his protein (SEQ ID NO: 16, 34 ng/mL in 2.5% w/v non-fatty milk in PBST), starting at 80 nM with a 5-fold serial dilution, and incubated at room temperature for 40 minutes. After plate washing 4 times, the antibody/TROP2-his protein mixtures were added to benchmark coated plates, 100 μl per well. After incubation at 37° C. for 40 minutes, plates were washed 4 times again using wash buffer. Then the plates were added and incubated with 100 μl Peroxidase Streptavidin (1:10000 dilution in PBST buffer, Jackson Immunoresearch, Cat #016-030-084) for 40 minutes at 37° C. Plates were washed again using wash buffer. […] The absorbance of each well was read on a microplate reader using dual wavelength mode with 450 nm for TMB and 630 nm as the reference wavelength, and the OD (450-630) values were plotted against antibody concentration. Data was analyzed using Graphpad Prism software and IC₅₀ values were reported.

human TROP2-his protein [4] = molecular target: T1, human TROP2-his protein; assay: indirect ELISA, plate coated with human TROP2-his; unit taken from the x axis (Con of mAb, ng/mL)
Method: The single domain antibodies of the disclosure were tested in the indirect ELISA for their cross-reaction with cynomolgus TROP2 protein. Briefly, 96-well micro plates were coated with 100 μl 2 μg/ml human TROP2-his protein (prepared in-house with SEQ ID NO: 16) in carbonate/bicarbonate buffer (pH 9.6) overnight at 4° C. ELISA plates were washed once with wash buffer (PBS+0.05% v/v Tween-20, PBST) and then blocked with 200 μl/well blocking buffer (5% w/v non-fatty milk in PBST) for 2 hours at 37° C. Plates were washed 4 times and incubated with 100 μl/well serially diluted anti-TROP2 antibodies of the disclosure or controls (starting at 66.7 nM, 5-fold serial dilution in 2.5% w/v non-fatty milk in PBST) for 40 minutes at 37° C. ELISA plates were washed 4 times again and incubated with Peroxidase AffiniPure F(ab′)₂ Fragment Goat Anti-Human IgG, Fey fragment specific (Jackson Immuno Research, Cat #109-036-098, 1:5000 dilution in PBST buffer, 100 μl/well) for 40 minutes at 37° C. After a final wash, plates were incubated with 100 μl/well TMB (Innoreagents) at room temperature. The reaction was stopped 3-10 minutes later at room temperature with 50 μl/well 1M H₂SO₄, and the absorbance of each well was read on a microplate reader using dual wavelength mode with 450 nm for TMB and 630 nm as the reference wavelength. The OD (450-630) values were plotted against antibody concentration. Data was analyzed using Graphpad Prism software and EC₅₀ values were reported.

human TROP2-his protein [5] = molecular target: T1, human TROP2-his protein; assay: indirect ELISA, plate coated with 1 ug/ml TROP2-his; bacterial culture supernatant
Method: (§2) ELISA plates were coated with 100 μl 1 μg/ml human TROP2-his protein (in house made with SEQ ID NO: 16), or 1 μg/ml cynomolgus TROP2-his protein (in house made with SEQ ID NO: 19) in carbonate/bicarbonate buffer (pH 9.6) overnight at 4° C., washed once with wash buffer (PBS+0.05% v/v Tween-20, PBST) and then blocked with 200 μl/well blocking buffer (5% w/v non-fatty milk in PBST) for 2 hours at 37° C. Plates were washed 4 times, and respectively incubated with 100 μl bacterial culture supernatant, and sacituzumab (used as the benchmark, also referred to as BM or BM1 hereinafter, in house made with heavy chain and light chain amino acid sequences set forth in SEQ ID NOs: 17 and 18) in 5% w/v non-fatty milk in PBST at 200 ng/ml, for 40 minutes at 37° C. The plates were washed 4 times, and incubated with THE™ HA Tag Antibody [HRP], mAb, Mouse Antibody (1:5000 dilution in PBST, GenScript, Cat #A01296, 100 μl/well, for plates with bacterial culture supernatans of the disclosure) or Peroxidase AffiniPure F(ab′)₂ Fragment Goat Anti-Human IgG, Fey fragment specific (Jackson Immunoresearch, Cat #109-036-098, for plates with the benchmark), for 40 minutes at 37° C. After a final wash, plates were incubated with 100 μl/well ELISA substrate TMB (Innoreagents, Cat #TMB-S-002) at room temperature. The reaction was stopped in 3-10 minutes with 50 μl/well 1M H₂SO₄, and the absorbance of each well was read on a microplate reader using dual wavelength mode with 450 nm for TMB and 630 nm as the reference wavelength. When the OD of a sample well was 2 times higher than the OD of the blank well, the sample can be determined as positive.

[6] = molecular target: T2, cynomolgus TROP2-his protein; assay: as above
Method: as §2

Kd (human TROP2-his protein [1]): 0.0975 nM
koff (human TROP2-his protein [1]): 2.73e-05 s⁻¹
kon (human TROP2-his protein [1]): 280000 M⁻¹ s⁻¹
Kd [2]: 0.647 nM
koff [2]: 0.000172 s⁻¹
kon [2]: 266000 M⁻¹ s⁻¹
IC50 (human TROP2-his protein [3]): 0.0417 µg/mL
EC50 (human TROP2-his protein [4]): 0.0177 µg/mL
Indirect ELISA OD (450-630) (human TROP2-his protein [5]): 1.03 OD (450-630)
Indirect ELISA OD (450-630) [6]: 0.56 OD (450-630)
B1: single domain antibody 01-5A (VHH)
VHH: QVQLVESGGGTVGAGGSLRLSCVVSGLPYERYCVAWFRQGPGKEREGVARILSDGTTSYSDSVKGRFTISKDNAKNTLYLQMNSLKSEDTATYYCAAEAFRPFTPSDGDCTTVLGIDYWGKGTLVTVSS
